Laboratory results reported in patent publication US20080293923A1 (Genentech, published 2008).

Target: T1, hepatocyte growth factor beta chain (HGF β) containing a Cys604 to Ser mutation (human, UniProt P14210 495-728)
T1 construct: Expressed in insect cells (baculovirus secretion vector pAcGP67), Val495 placed immediately after the secretion signal; Numbering follows full length HGF starting with MWV as 1-3; also called HGF β-chain; HGF-beta
Assay: complex formation in solution, size exclusion chromatography
Experimental: Elution fractions were assayed with SDS-PAGE, and those containing the complex were pooled. […] For this, Met, previously purified using Nickel chromatography as described above, was mixed with a combination of PNGase F (Roche) and Endoglycosidase A (Roche) at 1:100 enzyme:Met concentration and incubated at room temperature for 3 hours.

T1 sequence (P14210 other isoform, or with tags, fused parts or gaps limits assumed): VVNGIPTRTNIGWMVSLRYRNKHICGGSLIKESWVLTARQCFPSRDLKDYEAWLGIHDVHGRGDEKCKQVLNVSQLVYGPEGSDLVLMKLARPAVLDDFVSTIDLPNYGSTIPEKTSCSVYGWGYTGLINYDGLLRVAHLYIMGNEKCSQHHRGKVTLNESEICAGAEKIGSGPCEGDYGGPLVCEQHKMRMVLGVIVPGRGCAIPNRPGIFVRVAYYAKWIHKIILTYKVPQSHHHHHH

B1: extracellular fragment of the Met receptor containing residues 25 to 567 (Sema and PSI domain) with thrombin cleavable site and C-terminal (His)8-tag (receptor)
chain: ECKEALAKSEMNVNMKYQLPNFTAETPIQNVILHEHHIFLGATNYIYVLNEEDLQKVAEYKTGPVLEHPDCFPCQDCSSKANLSGGVWKDNINMALVVDTYYDDQLISCGSVNRGTCQRHVFPHNHTADIQSEVHCIFSPQIEEPSQCPDCVVSALGAKVLSSVKDRFINFFVGNTINSSYFPDHPLHSISVRRLKETKDGFMFLTDQSYIDVLPEFRDSYPIKYVHAFESNNFIYFLTVQRETLDAQTFHTRIIRFCSINSGLHSYMEMPLECILTELVPRGSTKKEVFNILQAAYVSKPGAQLARQIGASLNDDILFGVFAQSKPDSAEPMDRSAMCAFPIKYVNDFFNKIVNKNNVRCLQHFYGPNHEHCFNRTLLRNSSGCEARRDEYRTEFTTALQRVDLFMGQFSEVLLTSISTFIKGDLTIANLGTSEGRFMQVVVSRSGPSTPHVNFLLDSHPVSPEVIVEHTLNQNGYTLVITGKKITKIPLNGLGCRHFQSCSQCLSAPPFVQCGWCHDKCVRSEECLSGTWTQQICLPAIYKHHHHHHHH
notes: Expressed in insect cells (pAcGP67A); The complex was obtained with the unprocessed, single chain Met (not cut by thrombin); For better diffraction Met was deglycosylated with PNGase F and Endoglycosidase A before complex formation; also called Met fragment; Met Sema domain
B1: binds.
